Measured values: patent publication US20200157232A1 (TENEOONE, published 2020)

What was measured:
HSA = biological target: T1, HSA (Homo sapiens); assay: ELISA on human serum albumin
T1 construct: off-target control antigen; also called human serum albumin

Lambda = biological target: T2, Lambda; assay: ELISA on human lambda protein
T2 construct: off-target control antigen; also called human lambda protein

BVP = biological target: T3, BVP; assay: ELISA on baculovirus protein extract (BVP)
T3 construct: polyreactivity control; a protein mixture; also called Baculo Virus Protein Extract; baculovirus protein
Description: Off-target binding to Baculo Virus Protein Extract (BVP) was conducted by ELISA as above, with the modification of using 1×PBS and 1% dry milk powder for the diluent. BVP extract was obtained from INSERM (Nantes, France).

[1] = biological target: T4, human B-Cell Maturation Antigen (BCMA) (human, UniProt Q02223 1-54, limits assumed); assay: BioLayer Interferometry, Octet QK384, kinetics mode
T4 construct: also called CD269; TNFRSF17
T4 sequence (looked up): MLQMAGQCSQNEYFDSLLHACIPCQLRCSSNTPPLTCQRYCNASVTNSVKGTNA
Description: (§1) As used herein, the “Kd” or “Kd value” refers to a dissociation constant determined by BioLayer Interferometry, using an Octet QK384 instrument (Fortebio Inc., Menlo Park, Calif.) in kinetics mode. For example, anti-mouse Fc sensors are loaded with mouse-Fc fused antigen and then dipped into antibody-containing wells to measure concentration dependent association rates (kon). Antibody dissociation rates (koff) are measured in the final step, where the sensors are dipped into wells containing buffer only. The Kd is the ratio of koff/kon.

[2] = biological target: T4, human B-Cell Maturation Antigen (BCMA); assay: BioLayer Interferometry, Octet QK384, kinetics mode; bivalent form
Description: as §1

IgG1k = biological target: T5, IgG1k; assay: ELISA, UniAb captures human IgG1 kappa, detection goat anti-human kappa HRP
T5 construct: off-target control antigen; also called human IgG1 kappa protein

[3] = biological target: T4, human B-Cell Maturation Antigen (BCMA); assay: ELISA, supernatant UniAb on human BCMA ECD (Abcam ab50089), detection goat anti-human IgG HRP
Description: Supernatants of 6 antibodies were tested for binding in a standard ELISA assay to a human BCMA. Binding to recombinant BCMA protein was determined by ELISA using human BCMA ECD obtained from Abcam (ab50089). The BCMA ECD protein was used at a concentration of 2 μg/mL to capture UniAbs at 50 ng/mL. […] All antibodies were diluted in 1×TBS with 0.05% Tween-20 and 1% dry milk powder.

[4] = biological target: T4, human B-Cell Maturation Antigen (BCMA); assay: BioLayer Interferometry, Octet QK384, kinetics mode; monovalent form
Description: as §1

T1 sequence (P02768 25-609): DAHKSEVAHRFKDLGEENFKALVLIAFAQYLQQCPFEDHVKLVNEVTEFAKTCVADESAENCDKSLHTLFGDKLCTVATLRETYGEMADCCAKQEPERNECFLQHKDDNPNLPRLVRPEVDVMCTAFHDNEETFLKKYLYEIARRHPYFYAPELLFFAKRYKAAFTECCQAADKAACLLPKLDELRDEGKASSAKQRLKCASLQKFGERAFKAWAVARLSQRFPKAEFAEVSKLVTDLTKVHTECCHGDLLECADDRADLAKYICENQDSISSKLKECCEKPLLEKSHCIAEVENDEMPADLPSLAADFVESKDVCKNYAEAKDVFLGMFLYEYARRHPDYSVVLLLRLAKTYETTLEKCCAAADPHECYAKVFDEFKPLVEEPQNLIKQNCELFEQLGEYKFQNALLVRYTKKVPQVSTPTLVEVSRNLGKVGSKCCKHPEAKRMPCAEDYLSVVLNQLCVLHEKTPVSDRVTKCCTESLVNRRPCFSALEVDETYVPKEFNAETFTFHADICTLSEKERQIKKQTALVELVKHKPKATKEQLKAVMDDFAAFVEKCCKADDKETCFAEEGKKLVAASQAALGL

B1: anti-BCMA heavy chain-only antibody 308902, bivalent form (antibody, V domains shown)
VH: EVQLLESGGGLVQPGGSLRLSCAASGFTVSSYGMSWVRQAPGKGPEWVSGIRGSDGSTYYADSVKGRFTISRDNSKNTLYLQMNSLRAEDTAVYYCAKQGENDGPFDHRGQGTLVTVSS
notes: Heavy chain-only antibody with no light chain; UniAbs were expressed in HEK cells with CH1 deleted; also called UniAb 308902 (bivalent)
ELISA Binding Ratio (expt signal / dilutent only) (HSA): 0.8
ELISA Binding Ratio (expt signal / dilutent only) (Lambda): 1.1
ELISA Binding Ratio (expt signal / dilutent only), BVPscore (BVP): 1.1
koff [1]: 0.000177 s⁻¹
kon [1]: 3.38e+06 M⁻¹ s⁻¹
Kd [2]: 53 pM
ELISA Binding Ratio (expt signal / dilutent only) (IgG1k): 1.1
ELISA Binding Ratio (expt signal / dilutent only) [3]: 868

B2: anti-BCMA heavy chain-only antibody 308902, monovalent form (antibody, V domains shown)
VH: EVQLLESGGGLVQPGGSLRLSCAASGFTVSSYGMSWVRQAPGKGPEWVSGIRGSDGSTYYADSVKGRFTISRDNSKNTLYLQMNSLRAEDTAVYYCAKQGENDGPFDHRGQGTLVTVSS
notes: Heavy chain-only antibody with no light chain; UniAbs were expressed in HEK cells with CH1 deleted; also called UniAb 308902 (monovalent)
koff [1]: 0.000719 s⁻¹
kon [1]: 923000 M⁻¹ s⁻¹
Kd [4]: 779 pM
